# Experimental data as given in the nanobody polyreactivity screen of Harvey et al. (2022).
# Assay: yeast display, Sf9 membrane polyspecificity reagent, FACS + sequencing; frameworks hold sequencing errors
# Summary of the method: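 Synthetic nanobody libraries on Saccharomyces cerevisiae BJ5465 were galactose-induced for 36–48 hours, stained 1 hour at 4 °C with 10% biotinylated, detergent-solubilized Sf9 membrane reagent and enriched on streptavidin microbeads. FACS then separated cells into low and high (top ~1%) gates by anti-HA (expression) and streptavidin (reagent binding) fluorescence. Genes were colony-PCR amplified, MiSeq 2 × 250 sequenced and CDR-length filtered. A clone's polyreactivity label is that of its gate of origin.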
row,Sequence,polyreactivity (PSR sort gate)
1,QVQLEESGGGLVQAGGSLRLSCAASGIIFGRYAMGWYRQAPGKQRELVAAITSGGSTSYADSVKGRFTISRDNAKNTVYLQMNSLKPEDTAVYYCAVVFVWGWPGYYWGQGTQVTVSS,high polyreactivity
2,QVQLEESGGGLVQAGGSLRLSCAASGIIFRLYGMGWYRQAPGKEREFVATITWRGGRTNYADSVKGRFTISRDNAKNTVYLQMNSLTPEDTAVYYCANVVRYARSNEYDSSGQGTQVTVSS,low polyreactivity
3,QVQLEESGGGLVQAGGSLRLSCAASGIIIVRNAMGWYRQAPGKEREFVAAISSSGGSTYYADSVKGRFTISRDNGKNTVYLQMNSLNPEDTAVYNCNARHRQWARGYWGQGTQVTVSS,high polyreactivity
4,QVQLEESGGGLVQAGGSLRLSCAASGILRDNAMGWYRQAPGKERELVATINGDGSTYADSVKGRFTISRDNAKNTVYLQMNSLKPEDTAVYYCAAPFTTTFDYWGQGTQVTVSS,low polyreactivity
5,QVQLEESGGGLVQAGGSLRLSCAASGITFDFNAKGWYRQAPGTERELVAAIRNRGGSTYYADSVKGRFTISRDNAKNTVYLQMHSLKPVDTAVYYCNVDLWPFVYSWWSYDYWGQGTQVTVSS,high polyreactivity
6,QVQLEESGGGLVQAGGSLRLSCAASGITFSRYAMGWYRQATGKERELVARISSSGGSTNYADSVKGRFTISRDNAKNTVYLQMNSLKPEDSAVYYCAVATRGKVARRVTFDYWGQGTQVTVSS,high polyreactivity
7,QVQLEESGGGLVQAGGSLRLSCAASGLIFGKYAMGWYRTAPGKERELVAAITSSGGGTYYADSVKGRFTISRDNAKNTVYLQMNSLKPEDTAVYYCSTGPDPKYDYWGQGTQVTVSS,high polyreactivity
8,QVQLEESGGGLVQAGGSLRLSCAASGLNIAVYTMGWYRQAPGKERELVAAITRRSTRTYYADSVKGRFTISRDNALISVFLQMNSLKPEDTAVYYCAADRVSSGAAFEFWGQGTQVTVSS,low polyreactivity
9,QVQLEESGGGLVQAGGSLRLSCAASGLTFPWYAMGWYRPATGKEREFVAAITGGGSTYYADSVKGRFTISRDNAKNTVYLQMNSLKPEDTAVYYCNTDVPYGLDVSDTIDYYYWGQGTLVTVSS,low polyreactivity
10,QVQLEESGGGLVQAGGSLRLSCAASGNIFESYGMGWYRQAPGKERELVATINTSSGSTYYADSVKGRFTISRDNAKNTVYLQMNSLKPEDTAVYYCAAEWYPYPWGYGYWGQGTQVTVSS,low polyreactivity
11,QVQLEESGGGLVQAGGSLRLSCAASGPIFPGYVMGWYRQAPGKERELVAAISVRGGSTYYADSVKGRFTISRDNAKNTVYLQMNSLKPEDTAVYYCAADSYYYQGYRRYNYDYWGQGTQVTVSS,high polyreactivity
12,QVQLEESGGGLVQAGGSLRLSCAASGRIFAVNAMGGYRQAPGKERELVAAINGGGSTNYADSVKGRFTLSRDNAKNTVYLQMNSLKPADTAVYYCAADVGWRSQTRGYYWGQGTQVTVSS,high polyreactivity
13,QVQLEESGGGLVQAGGSLRLSCAASGRIFDDNAMGWYRPAPGKERELVAAISSSGGSTYYADSVKGRFTISRDNAKNTVYLQMNSLKPEDTAVYYCNAGRYIRAFWYAHGYDYWGQGTQVTVSS,high polyreactivity
14,QVQLEESGGGLVQAGGSLRLSCAASGRIFIKNAMGWYRQAPGKVRELVAAISARGGSTYYADSVKGRFTISRDIAKNTVYLEMNSLKPEDTAVYDCAVDVYEPRYRRPLHHDYWGQGTQVTVSS,low polyreactivity
15,QVQLEESGGGLVQAGGSLRLSCAASGRIFLTYAMGWYRQAPGKERELVAAIRSRSGTTYYADSVKGRFTISRDNAKNTVYLQMNSLKPEDTAVYYCAAGGKSRSYYWGQGTQVTVSS,high polyreactivity
16,QVQLEESGGGLVQAGGSLRLSCAASGRIFLYNAMGWYRQAPGKERELVAAISRSGGSTYYADSVKGRFTISRDNAKNTVYLQMNSLKPEDTAVYYCAVGSPYGCRAPWVRGGDYWGQGTQVTVSS,high polyreactivity
17,QVQLEESGGGLVQAGGSLRLSCAASGRIFQYYDMGWYRPATGKERELVAGIRTNGSSTYYADSVKGRFTISRDNAKNTVYLQMNSLKPEDSAVYYCAARHYRYLRQYDYWGQGTQVTVSS,low polyreactivity
18,QVQLEESGGGLVQAGGSLRLSCAASGRIFSRNARGWYRPSPGKERELVAASSSGGGSTYYADSVKGRFTISRDNAKNTVYLLMNSLKPEDTAVYYCAARTRITYDWGQGTQVTVSS,low polyreactivity
19,QVQLEESGGGLVQAGGSLRLSCAASGRIFTYYGMGWYRQAPGKERELVAAITRSGGSTRYADSVKGRFTISRDNAKNTVYLQMNSLKPEDTAVYFCAKTHYGVQRLDSCGQGTQVTVSS,low polyreactivity
20,QVQLEESGGGLVQAGGSLRLSCAASGRIFVIYAMGWYRQAPGKERELVAVITSGGRTYYADSVNGRFTISRDNAKNTVYLQMNRLKPEDTAVYYCAARTGRGFEYWGQGTQVTVSS,high polyreactivity
21,QVQLEESGGGLVQAGGSLRLSCAASGRIFYEYAMGWYRQAPGKERELVADISSGDDTYYADSVKGRFTISRDNAKNTVYLQMNSLKPEDTAVYYCAADDGGSGFIYDYWGQGTQVTVSS,low polyreactivity
22,QVQLEESGGGLVQAGGSLRLSCAASGRISGFNAMGWYRKAPGKEREFVAAISYRGGYTYADSVKGRFTISRDNAKNTVYLQMNSLKPEDTAVYYCNALWRGHGRYNYWGQGTQVNVSS,low polyreactivity

row,Sequence,polyreactivity (PSR sort gate)
1,QVQLEESGGGLVQAGGSLRLSCAASGRSFWPNAMGWYRQAPGKERELVAAISSGGSTNYADSVKVRFTISRDNAKNTVYLQMNSLKPEDTAVYYCASDGQGDKYDYYGHNFWGQGTQVTVSS,low polyreactivity
2,QVQLEESGGGLVQAGGSLRLSCAASGRSFYGNAMGWYRQAPGKERELVAASSSRSSSTSYADSVKGRFTISRANAKNTVYLLMNSLKPEDTAVYYCATRYGSRTWYGYNYWGQATQVTVSS,high polyreactivity
3,QVQLEESGGGLVQAGGSLRLSCAASGRTFGRYDMGWYRQAPGKEREFVAAISTRGSRTYYADSVKGRFTISRDNAKNTVYLQMNSLKAEDTAVYYCAAEYLPRPYSWIYYYWGQGTQVTVSS,high polyreactivity
4,QVQLEESGGGLVQAGGSLRLSCAASGRTFRYYAMGWSRQAPGKERELVAAISWSGSSTYYADSVKGRFTISRDNAKNTVYLQMNSLKAEDTAVYYCNAKGVRGKYFDYSRVSAYDYWGQGTQVTVSS,low polyreactivity
5,QVQLEESGGGLVQAGGSLRLSCAASGRTFSIYAMGWYRQAPGKERELVASITGRGTRTYYADSVKGRFTISRDNAKNTVYLQMNSLKPEDTAVYYCNARGKVQSSYDDDYWGQGTQVTVSS,high polyreactivity
6,QVQLEESGGGLVQAGGSLRLSCAASGRTFVPYVMGWYRQAPGKEMELVATINWSGGSTYYADSVKGRFTISRDNAKNTVYLQMNSLKPEDTADYYCAARYYSDWFYYLFRYDYWGQGTQVTVSS,low polyreactivity
7,QVQLEESGGGLVQAGGSLRLSCAASGRTFYRSAMGWYRPEPGKERELVAAITWSGGSTYYAVSVKGRFTTSRDNAKNTVYLQMNSLKPEDTAVYYCARRLYPYRPTAYDYWGQGTQVTVSS,low polyreactivity
8,QVQLEESGGGLVQAGGSLRLSCAASGRTFYSSAMGWYRQPPGKERQLVAAITISGGRTFYADSVKGRSTISRDNAKNTVYLQMNSLKPEDTAVYYCATDTYEPFHFEDDYWGQGTQVTVST,low polyreactivity
9,QVQLEESGGGLVQAGGSLRLSCAASGRTIIINTMGWYRQAPGKERELVAAISKNGATTNYADSLKGRFTISRDNAKNTVYLQMNSLKPEDTSVYYCNARYSGYLRLDYWGQGTQVNVSS,low polyreactivity
10,QVQLEESGGGLVQAGGSLRLSCAASGRTSYGYAMGWYRQAPGKERELVAAISSGGRTNYADSVKGRFTISRDNAKNTVYLQMNSLKPEDTAVYYCAKRYRYRPSYDYWGQGTQVTVSS,high polyreactivity
11,QVQLEESGGGLVQAGGSLRLSCAASGRTTYWYAMGWYRQAPGKERELVADISWSGGSTYYADSVKGRFTISRDNAKNTVYLQMNSLKPEDPAVYYCNAAEQKYSIYYAFDTGPYDYWGQGTQVTVSS,low polyreactivity
12,QVQLEESGGGLVQAGGSLRLSCAASGRTYRYAMGWYRQSPGKERELVAAIRWSGGSTYYADSVKGRFTISRDNAKNTVYLQMNSLKPEDTAVYYCAADSYATRYYYWGQGTQVTVSS,high polyreactivity
13,QVQLEESGGGLVQAGGSLRLSCAASGSICGVYVMGWYRQAPGKERELVASISRGTTTNYADSVKGRFTISRDNAKNTVYLQMNSLKPEDTAVYYCNADIRGFFFQYDYWGQGTQVTVSS,low polyreactivity
14,QVQLEESGGGLVQAGGSLRLSCAASGSICWLYAMGWYRQAPGKERELVAAIDSGDSTKYADSVKGRFTISRDNAKNTVYLQMNSLIPEDTAVYYCNASRRYHVRAPYDYWGQGTQVTVSS,low polyreactivity
15,QVQLEESGGGLVQAGGSLRLSCAASGSICYYYARGWYRQAPGKERELVASITSGGRTYYADSVKGRFTISRDNAKNTVYLQMNSLKPEDTAVYYCAAQRIWLGDYWGQGTQVTVSS,high polyreactivity
16,QVQLEESGGGLVQAGGSLRLSCAASGSIFARNAMGWYRQAPGNERELVAAISTGGGSTYYADSVKGRFTISRDNAKNSVYLQMKSLKPEDTAVYYCNAGDTQIRFYYWGQGTQVSVSS,low polyreactivity
17,QVQLEESGGGLVQAGGSLRLSCAASGSIFGAYALGWYRQAPGKERELVAAISSSVDRTYYADSVKGRFTISRDNAKNTVYLQMNSLKPEDTAVYYCAARWGTRDRTKYYYWGQGTQVTVSS,high polyreactivity
18,QVQLEESGGGLVQAGGSLRLSCAASGSIFGFYAMGWYRQAPGKERELVAAISQRGGNTYYADSVKGRFTISRDNAKNTVYLQMNSLKPEDTAVYYCATDKHPYKRHWYYTYDYWGQGTQLTVSS,high polyreactivity
19,QVQLEESGGGLVQAGGSLRLSCAASGSIFITYAMGWYRQAPGKERELVAAIRDSGDRTYYADSVKGRFTISRDTAKNTVYLQMNSLKPEDTGVYYCNARWQETLKYDYWGQGTLVTVSS,low polyreactivity
20,QVQLEESGGGLVQAGGSLRLSCAASGSIFKRKAMGWSRQAPGKERELVASISSGGSTHYADSVKGRFTISRDNAKNTVYLQMNSLKREDTAVYYCAATSIRWSVGSFRRDYWGQGTQVTVSS,low polyreactivity
21,QVQLEESGGGLVQAGGSLRLSCAASGSIFLANAMGWYRQAPGKERELVATISSGGSTYYADSVKGRFTISRDNAKNTVYLQMNSLKPEDTAVYYCAKRRAYTKKLYYWGQGTQVTVSS,high polyreactivity
